From paper PMC11796367

B1: mKrm1-Fc (human IgG1 Fc-fused mouse KRM1 ectodomain) (Fc fusion)
chain: APGPRSGPECFTANGADYRGTQSWTALQGGKPCLFWNETFQHPYNTLKYPNGEGGLGEHNYCRNPDGDVSPWCYVAEHEDGVYWKYCEIPACQMPGNLGCYKDHGNPPPLTGTSKTSNKLTIQTCISFCRSQRFKFAGMESGYACFCGNNPDYWKHGEAASTECNSVCFGDHTQPCGGDGRIILFDTLVGACGGNYSAMAAVVYSPDFPDTYATGRVCYWTIRVPGASRIHFNFTLFDIRDSADMVELLDGYTHRVLVRLSGRSRPPLSFNVSLDFVILYFFSDRINQAQGFAVLYQATKEEPPQERPAVNQTLAEVITEQANLSVSAAHSSKVLYVITPSPSHPPQTAPG
B2: hKRM1-Fc (human IgG Fc-fused human KRM1 ectodomain) (Fc fusion)
chain: APSPGLGPECFTANGADYRGTQNWTALQGGKPCLFWNETFQHPYNTLKYPNGEGGLGEHNYCRNPDGDVSPWCYVAEHEDGVYWKYCEIPACQMPGNLGCYKDHGNPPPLTGTSKTSNKLTIQTCISFCRSQRFKFAGMESGYACFCGNNPDYWKYGEAASTECNSVCFGDHTQPCGGDGRIILFDTLVGACGGNYSAMSSVVYSPDFPDTYATGRVCYWTIRVPGASHIHFSFPLFDIRDSADMVELLDGYTHRVLARFHGRSRPPLSFNVSLDFVILYFFSDRINQAQGFAVLYQAVKEELPQERPAVNQTVAEVITEQANLSVSAARSSKVLYVITTSPSHPPQTVPG

Target: CVA8 virion (strain 14-943/GS/CHN/2014) (coxsackievirus A8 (CVA8), strain GS14)

Binder | neutralization of CVA8 strain GS14 infection of RD cells (cell viability assay)
B1 | 0.32 nM
B2 | 0.03 nM
